From patent publication US20210032365A1 (Chugai, published 2021)
Changes are numbered by the printed parent chain. Blank lines part the entries; values can stand above or below the binder they belong to.

Key:
human C1s [1] = target: T1, human C1s (human, UniProt P09871 16-688); assay: SPR, Ab captured; pH 5.8, 1.2 mM Ca
T1 construct: also called hC1s; serum-derived human C1s (CompTech)
T1 sequence: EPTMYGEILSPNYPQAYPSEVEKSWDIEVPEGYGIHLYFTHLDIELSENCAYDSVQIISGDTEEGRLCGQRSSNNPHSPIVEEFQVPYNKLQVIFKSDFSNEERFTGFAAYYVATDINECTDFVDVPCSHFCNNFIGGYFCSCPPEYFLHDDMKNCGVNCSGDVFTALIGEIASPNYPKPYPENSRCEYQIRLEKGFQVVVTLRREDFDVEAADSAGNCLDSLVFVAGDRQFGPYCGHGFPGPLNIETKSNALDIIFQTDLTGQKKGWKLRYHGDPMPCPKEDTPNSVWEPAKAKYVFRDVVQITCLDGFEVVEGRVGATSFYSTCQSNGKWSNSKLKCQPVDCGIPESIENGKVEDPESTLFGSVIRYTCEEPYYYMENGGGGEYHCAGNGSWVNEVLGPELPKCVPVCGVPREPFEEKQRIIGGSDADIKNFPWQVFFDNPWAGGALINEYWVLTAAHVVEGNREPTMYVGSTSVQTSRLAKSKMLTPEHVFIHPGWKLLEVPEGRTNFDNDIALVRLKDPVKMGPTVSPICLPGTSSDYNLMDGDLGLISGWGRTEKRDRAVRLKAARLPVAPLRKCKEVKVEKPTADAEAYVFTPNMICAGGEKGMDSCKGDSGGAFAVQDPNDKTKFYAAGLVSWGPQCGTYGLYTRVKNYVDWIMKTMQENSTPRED
Protocol: (§1) All variants were transiently expressed and purified by the method described above. The binding affinity of each histidine-substituted variant at pH 7.4 and pH 5.8 was determined at 37 degrees C. using Biacore T200 instrument (GE Healthcare). Recombinant Protein A/G (Pierce) was immobilized onto all flow cells of a CM4 sensor chip using an amine coupling kit (GE Healthcare). Antibodies and analytes were prepared in 7(+) buffer (20 mM ACES, 150 mM NaCl, 1.2 mM CaCl2, 0.05% Tween 20, 0.005% NaN3, pH 7.4), 5(+) buffer (20 mM ACES, 150 mM NaCl, 1.2 mM CaCl2, 0.05% Tween 20, 0.005% NaN3, pH 5.8), or 5(−) buffer (20 mM ACES, 150 mM NaCl, 3 micro M CaCl2, 0.05% Tween 20, 0.005% NaN3, pH 5.8). Each antibody was captured onto the sensor surface by protein A/G. Antibody capture levels were aimed at 200 resonance unit (RU). Serum-derived human C1s (CompTech) or recombinant C1s prepared in EXAMPLE 1 was injected at 50 nM, followed by dissociation. The sensor surface was regenerated in each cycle with 10 mM Glycine-HCl, pH 1.5. […] The ratio of KD 5.8+ to KD 7.4+(“KD 5+/7+”) and that of KD 5.8− to KD 7.4+(“KD 5−/7+”) were calculated. When the KD 5+/7+ or KD 5−/7+ of a variant is larger than that of the parent antibody IPN009VH2-SG4GK/IPN009VK3-SK1, that variant is considered to be “pH”- or “pH and Ca”-dependent, respectively. When binding response in 5(+) buffer and/or in 5(−) buffer of a variant is much lower than that of IPN09VH2/IPN009VK3, that variant is also considered as “pH”- and/or “pH and Ca”-dependent. Therefore, such mutations are effective to generate “pH”- and/or “pH and Ca”-dependent antibody. To further enhance “pH” and/or “pH and Ca” dependency, a combination of histidine mutations was conducted. Antibodies with combinations of histidine mutations were evaluated using Biacore by the method described above.

human C1s [2] = target: T1, human C1s; assay: SPR; KD pH 5.8 3 uM Ca / KD pH 7.4 1.2 mM Ca
Protocol: as §1

human C1s [3] = target: T1, human C1s; assay: SPR; KD pH 5.8 1.2 mM Ca / KD pH 7.4 1.2 mM Ca
Protocol: as §1

human C1s [4] = target: T1, human C1s; assay: SPR, Ab captured; pH 5.8, 3 uM Ca
Protocol: as §1

human C1s [5] = target: T1, human C1s; assay: SPR, Ab captured; pH 7.4, 1.2 mM Ca
Protocol: as §1

- Kd (human C1s [1]): 14.1 nM
- koff (human C1s [1]): 0.00751 s⁻¹
- kon (human C1s [1]): 534000 M⁻¹ s⁻¹
- KD 5(-)/7(+) (human C1s [2]): 0.5
- KD 5(+)/7(+) (human C1s [3]): 1
- Kd (human C1s [4]): 6.66 nM
- koff (human C1s [4]): 0.00351 s⁻¹
- kon (human C1s [4]): 528000 M⁻¹ s⁻¹
- Kd (human C1s [5]): 13.9 nM
- koff (human C1s [5]): 0.00476 s⁻¹
- kon (human C1s [5]): 343000 M⁻¹ s⁻¹
B1: C1_IPN009VH2-SG4GK/IPN93L0028-SK1 (antibody, human IgG4 S228P, kappa, name in Kabat numbering, V domains shown)
VH: EVMLVESGGGLVKPGGSLRLSCAASGFTFSNYAMSWVRQAPGKGLEWVATISSGGSHTYYLDSVKGRFTISRDNSKDTLYLQMNSLRAEDTALYYCARLFTGYAMDYWGQGTLVTVSS
VL: QIVLTQSPATLSLSPGERATLSCTASSSVSSSYLHWYQQKPGKAPKLWIYSTSNLASGVPSRFSGSGSGTDYTLTISSLQPEDFATYYCHQYHRHPPITFGQGTKLEIKR
notes: also called IPN009VH2/IPN93L0028

- Kd (human C1s [1]): 10.2 nM
- koff (human C1s [1]): 0.00613 s⁻¹
- kon (human C1s [1]): 602000 M⁻¹ s⁻¹
- KD 5(-)/7(+) (human C1s [2]): 0.6
- KD 5(+)/7(+) (human C1s [3]): 1.1
- Kd (human C1s [4]): 5.07 nM
- koff (human C1s [4]): 0.00412 s⁻¹
- kon (human C1s [4]): 812000 M⁻¹ s⁻¹
- Kd (human C1s [5]): 9.03 nM
- koff (human C1s [5]): 0.00457 s⁻¹
- kon (human C1s [5]): 507000 M⁻¹ s⁻¹
B2: C1_IPN92H0026-SG4GK/IPN93L0029-SK1 (antibody, human IgG4 S228P, kappa, name in Kabat numbering, V domains shown)
VH: B1 VH with G66H
VL: B1 VL with H95L, P96H
notes: also called IPN92H0026/IPN93L0029

- Kd (human C1s [1]): 3.16 nM
- koff (human C1s [1]): 0.00143 s⁻¹
- kon (human C1s [1]): 451000 M⁻¹ s⁻¹
- KD 5(-)/7(+) (human C1s [2]): 13.2
- KD 5(+)/7(+) (human C1s [3]): 2.8
- Kd (human C1s [4]): 15.1 nM
- koff (human C1s [4]): 0.112 s⁻¹
- kon (human C1s [4]): 7.43e+06 M⁻¹ s⁻¹
- Kd (human C1s [5]): 1.14 nM
- koff (human C1s [5]): 0.00047 s⁻¹
- kon (human C1s [5]): 412000 M⁻¹ s⁻¹
B3: C1_IPN92H0026-SG4GK/IPN93L0024-SK1 (antibody, human IgG4 S228P, kappa, name in Kabat numbering, V domains shown)
VH: B1 VH with G66H
VL: B1 VL with H93Y, H95L, P96H
notes: also called IPN92H0026/IPN93L0024

- Kd (human C1s [1]): 1.53 nM
- koff (human C1s [1]): 0.00124 s⁻¹
- kon (human C1s [1]): 813000 M⁻¹ s⁻¹
- KD 5(-)/7(+) (human C1s [2]): 8.6
- KD 5(+)/7(+) (human C1s [3]): 1.3
- Kd (human C1s [4]): 9.95 nM
- koff (human C1s [4]): 0.0619 s⁻¹
- kon (human C1s [4]): 6.23e+06 M⁻¹ s⁻¹
- Kd (human C1s [5]): 1.16 nM
- koff (human C1s [5]): 0.000608 s⁻¹
- kon (human C1s [5]): 523000 M⁻¹ s⁻¹
B4: C1_IPN92H0026-SG4GK/IPN93L0023-SK1 (antibody, human IgG4 S228P, kappa, name in Kabat numbering, V domains shown)
VH: B1 VH with G66H
VL: B1 VL with H93Y
notes: also called IPN92H0026/IPN93L0023

- Kd (human C1s [1]): 1.95 nM
- koff (human C1s [1]): 0.00149 s⁻¹
- kon (human C1s [1]): 763000 M⁻¹ s⁻¹
- KD 5(-)/7(+) (human C1s [2]): 10.1
- KD 5(+)/7(+) (human C1s [3]): 2.4
- Kd (human C1s [4]): 8.12 nM
- koff (human C1s [4]): 0.17 s⁻¹
- kon (human C1s [4]): 2.1e+07 M⁻¹ s⁻¹
- Kd (human C1s [5]): 0.804 nM
- koff (human C1s [5]): 0.000472 s⁻¹
- kon (human C1s [5]): 587000 M⁻¹ s⁻¹
B5: C1_IPN92H0026-SG4GK/IPN93L0021-SK1 (antibody, human IgG4 S228P, kappa, name in Kabat numbering, V domains shown)
VH: B1 VH with G66H
VL: B1 VL with H95L
notes: also called IPN92H0026/IPN93L0021

- Kd (human C1s [1]): 5.05 nM
- koff (human C1s [1]): 0.00282 s⁻¹
- kon (human C1s [1]): 559000 M⁻¹ s⁻¹
- KD 5(-)/7(+) (human C1s [2]): 3.5
- KD 5(+)/7(+) (human C1s [3]): 1.6
- Kd (human C1s [4]): 11.3 nM
- Kd (human C1s [5]): 3.25 nM
- koff (human C1s [5]): 0.000978 s⁻¹
- kon (human C1s [5]): 301000 M⁻¹ s⁻¹
B6: C1_IPN92H0033-SG4GK/IPN93L0023-SK1 (antibody, human IgG4 S228P, kappa, name in Kabat numbering, V domains shown)
VH: B1 VH with Y103H
VL: B1 VL with H93Y
notes: also called IPN92H0033/IPN93L0023

- Kd (human C1s [1]): 20.1 nM
- koff (human C1s [1]): 0.0144 s⁻¹
- kon (human C1s [1]): 717000 M⁻¹ s⁻¹
- KD 5(-)/7(+) (human C1s [2]): 1.3
- KD 5(+)/7(+) (human C1s [3]): 3.1
- Kd (human C1s [4]): 8.5 nM
- koff (human C1s [4]): 0.0056 s⁻¹
- kon (human C1s [4]): 658000 M⁻¹ s⁻¹
- Kd (human C1s [5]): 6.5 nM
- koff (human C1s [5]): 0.00218 s⁻¹
- kon (human C1s [5]): 335000 M⁻¹ s⁻¹
B7: C1_IPN92H0033-SG4GK/IPN93L0028-SK1 (antibody, human IgG4 S228P, kappa, name in Kabat numbering, V domains shown)
VH: B1 VH with Y103H
VL: B1 VL
notes: also called IPN92H0033/IPN93L0028
